Consider 1 substance from PMC6054995.

For this experiment, the target named is Marchantia polymorpha 3-phosphoglycerate dehydrogenase, recombinant, without the transit peptide (Marchantia polymorpha). Kind of experiment: SEC; HiPrep 16/60 Sephacryl S-300 HR, 0.5 mL/min, 100 mM sodium phosphate buffer (pH 9.0); mass estimated from a standard curve of thyroglobulin, apoferritin, beta-amylase, albumin and carbonic anhydrase.

Consider “Marchantia polymorpha 3-phosphoglycerate dehydrogenase, recombinant, without the transit peptide (enzyme)”, for which the stoichiometry N was 4.
